In publication PMC3662668, “Structural and Functional Basis for Inhibition of Erythrocyte Invasion by Antibodies that Target Plasmodium falciparum EBA-175” (PLoS Pathogens, 2013):

B1: R217 IgG (antibody, V domains shown)
VH: VQLQQSGPELVKPGTSVKISCKTSGYTFTENTMHWVKQSHGESLDWVGGINTDNGGTTYSQKFKGKATLTVDKSSSTAYMELRSLTSEDSAVYYCSTGYDAMDYWGQGTSVTVSS
VL: NIVLTQSPASLAVSLGQRATISCRASKGVDSYGNSFMHWYQQRPGQPPKLLIYLASHLESGVPARFSGSGSRTDFTLTIDPVEADDAATYYCQQNNEDPFTFGSGTKLEIK
notes: mouse IgG1 heavy chain; its Fab part as the heavy chain of m3 (deposited structure); as the light chain of m3; IgG1 mouse monoclonal antibody; also called R217 antibody
B2: R218 IgG (antibody, V domains shown)
VH: EVQLQQSGAELVKPGASVKLSCTASGFNIKDNYMHWVKQRPEQGLEWIGRIDPANGNTKYDPKFQGKATITADTSSNTAYLQLSSLTSEDTAVYYCARHYDGYFLYYFEYWGQGTTLTVSS
VL: DIQMTQTTSSLSASLGDRVTITCRAGQDISNYLNWYQQKPDGTVKLLIYYTSRLHSGVPSRFSGSGSGTDYSLTISNLEQEDIATYFCQQGSTFPWTFGGGTKLEIK
notes: mouse IgG1 heavy chain; its Fab part as the heavy chain of m5 (deposited structure); as the light chain of m5; IgG1 mouse monoclonal antibody; also called R218 antibody

Biological target: T1, wildtype PfEBA-175 RII expressed on the surface of HEK293T cells (Plasmodium falciparum, strain not …, UniProt Q8IBE8)
T1 construct: PfEBA-175 of P. falciparum, region II; The pRE4 vector supplies the signal and membrane anchor for surface display (surmise); also called wildtype RII; source: HEK293T, transfected (pRE4 vector), on the cell surface; not shown: GFP, C-terminal, kept
Assay: immunostaining of cells or tissue; DBL proteins on the surface of transfected HEK293T cells, probed with 10 µg/ml R217 or R218, then Alexafluor-546 anti-mouse IgG1; fluorescence microscopy
Conditions: one partner purified

Row | Binder | binding result
1 | B1 | binds
2 | B2 | binds
